Measured values as given in publication PMC11929097, “Stabilized designs of the malaria adhesin protein PvRBP2b for use as a potential diagnostic for Plasmodium vivax [image fx2.gif]” (The Journal of Biological Chemistry, 2025).
Residue numbers refer to the chain shown, from its start. “And” between values parts separate entries of the source, which are not always exact repeats. Equal values may be shown once.

T1: WHT2484 (PROSS-MPNN stabilized design of PvRBP2b_(169-470)) (Plasmodium vivax strain Salvador I …, Lys248Leu | Met324Phe | Gln378Leu | Arg418Glu)
T1 construct: PvRBP2b, P. vivax strain Salvador I, PVX_094255, residues 169-470 with 26 designed stabilising mutations; 26 mutations relative to the parental protein; crystal structure PDB 9DZD solved here
T1 chain: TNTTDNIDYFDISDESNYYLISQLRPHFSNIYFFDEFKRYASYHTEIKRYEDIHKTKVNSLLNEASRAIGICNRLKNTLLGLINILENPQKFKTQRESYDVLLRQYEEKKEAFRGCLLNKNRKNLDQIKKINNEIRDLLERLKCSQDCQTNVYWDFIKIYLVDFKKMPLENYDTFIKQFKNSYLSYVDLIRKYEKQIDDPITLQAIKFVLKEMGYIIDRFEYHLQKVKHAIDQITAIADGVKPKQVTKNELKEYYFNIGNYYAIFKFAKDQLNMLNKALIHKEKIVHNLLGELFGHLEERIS

T2: WHT2483 (PROSS-MPNN stabilized design of PvRBP2b_(169-470)) (Plasmodium vivax strain Salvador I …, Gln378Leu | Arg418Glu)
T2 construct: PvRBP2b, P. vivax strain Salvador I, PVX_094255, residues 169-470 with 19 designed stabilising mutations; 19 mutations relative to the parental protein; crystal structure PDB 9DZC solved here
T2 chain: T1 chain with L80K, R141K, F156M, Y193I, Q204N, I234V, I237L

B1: human mAb 251249 (antibody, V domains shown)
VH: EVQLVESGGGLVKPGGSLRLSCEASGFLFSSYSMNWVRQAPGKGLEWVSSITGYSSEVFYTDSVKGRFTVSRDNSKNSLYLQMDSLRAEDTAVYYCARALTIFGVVITDYWFFDLWGRGTLVTVSS
VL: EIVLTQSPATLSLSPGDRATLSCRASQSVTTFLAWYQQKPGQAPRLLIYDVSNRATGIPARFSGSGSGTDFTLTISSLEPEDFAVYYCQQRSNWGLTFGGGTKVEIK
notes: naturally acquired human mAb, recombinant IgG captured by its Fc; source: Expi293 HEK cells, transfected, purified (protein A, SEC)
B2: human mAb 241242 (antibody, V domains shown)
VH: EVQLLESGGGLVQPGGSLRLSCAVSGFTFRNYALSWVRQAPGKGLDWVSTISASGGATYYADSVKGHFTISRDNSKNILYLDMKSLRAEDTAIYYCARDGGSYTPYFFLDSWGQGALVTVSS
VL: SYELTQPASVSVAPGQTAQITCGGNSIGRKSIHWYQHKPGQAPVLVISYDSDRPSGIPERFSGSNSGNTATLTISKVEAGDEADFYCQVRDSDNDHVVFGGGTKLTVL
notes: as for B1
B3: human mAb 253245 (antibody, V domains shown)
VH: EVQLVQSGAEVKKPGSSMKVSCKASGGTFNRYVFSWVRQAPGQGLEWMGGILPILETTYYAKNFKGRVTITADESTSTVYMELSSLTSEDTAVYFCARDEHDYVWGSYRPSLTGPWGQGTLVTVSS
VL: QSALTQPPSTSGSPGQSVTISCTGTGIDVGGFSYVSWFQYHPGKAPKLIIFEVTKRPSGVPDRFSGSKSGNTASLTISGLQADDEAEYYCSSYAVNNNFVFGTGTKVTVL
notes: as for B1
B4: human mAb 283284 (antibody, V domains shown)
VH: QVQLQQWGAGLLKPSETLALTCTVYGGSSSGYYWNWIRQSPGKGLEWIGEISDSGSTIYNPSLESRVTMSVDTSKNQFSLKLTSVTAADTAVYYCAKAILTRYNWLDPWSQGTLVTVSS
VL: DIVMTQSPSSLSASVGDRISISCRASQGVNSALAWYQQKPGKAPKLLIYDASTLESGVPSRFSGSGSGTDFALTINSLQPEDFATYYCQQFNSYPLTFGGGTKVEIK
notes: as for B1
B5: human mAb 258259 (antibody, V domains shown)
VH: EVQLLESGGGLVRPGGSQRLSCAASGFTFTPYAMTWVRQAPGKGLEWLSTISGSGGSTYYADSVKGRFTISRDNSKNMLYLQMNSLTAEDTALYYCTKDKDEYTFGHNAFDVWGQGTMVTVSS
VL: SYELTQAPSVSVAPGQTARITCGGDNIGRKTVNWYQQKPGQAPVLVIYYDNDRPSGIPERFSGSNSGNMATLSISRVEVGDEADYYCQVWDSNNDHPVFGGGTKLTVV
notes: as for B1
B6: human mAb 273264 (antibody, V domains shown)
VH: B5 VH with Y59S, M78I, N84D, T87R, Q115R
VL: B5 VL with K30T, T31S, N33H, Y48F
notes: as for B1
B7: human mAb 237235 (antibody, V domains shown)
VH: QVQLVESGGGVVQPGRSLRLSCAASGFMFNSYGMHWVRQAPGKGLEWMAFISYDGSDDYYGDSVKGRITISRDNSKNTLFLHINSLRTEDTAVYYCAKESNYGENAFDVWGHGTMVTVSS
VL: QSALTQPRSVSGSPGQSVTISCTGTSNDVGFYNFVSWYQHHPGKAPKLMIYDVTERPSGVPDRFSGSKSGNTASLTISGLQAEDEAEYYCCSYAGTYTFVFGHGTKVTVL
notes: as for B1
B8: human mAb 243244 (antibody, V domains shown)
VH: QVQLVESGGGVVQSGKSLRVSCAASGFTFSSYGMHWVRQAPGKGLEWVAFISYDGDNKYSADSVKGRLTISRDNSKNTLYLQMNSLRPEDTAVYYCAKESNYGENAFDIWGQGTMVTVSS
VL: B7 VL with N27S, M49I, T54S, T76S, A82P, E87D, H103S
notes: as for B1

target: T3, parental PvRBP2b_(169-470) (Plasmodium vivax reticulocyte-binding protein 2b, N-terminal domain) (Plasmodium vivax strain Salvador I, UniProt A5K736); experiment: BLI; Octet RED96; human mAb loaded on anti-human IgG Fc capture sensor tips; parental PvRBP2b169-470 or design in solution, 2-fold series 0.63 to 10 nM; 25 °C; PBS, 0.1% bovine serum albumin, 0.05% Tween-20; global fit 1:1 model; two independent experiments; conditions: both partners purified
T3 construct: TEV cleavage site between the His tag and the protein; pPROEX HTb vector; also called parental construct; parental protein

Row | Binder | Kd [nM] | koff [s⁻¹] | kon
1 | B1 | < 0.001 | < 1e-07 | 1.63e+06 M⁻¹ s⁻¹ and 1.25e+06 M⁻¹ s⁻¹
2 | B2 | < 0.001 | < 1e-07 | 1.24e+06 M⁻¹ s⁻¹ and 1.52e+06 M⁻¹ s⁻¹
3 | B3 | < 0.001 | < 1e-07 | 1.58e+06 M⁻¹ s⁻¹ and 1.18e+06 M⁻¹ s⁻¹
4 | B4 | < 0.001 | < 1e-07 | 1.48e+06 M⁻¹ s⁻¹ and 994000 M⁻¹ s⁻¹
5 | B5 | < 0.001 | < 1e-07 | 1.33e+06 M⁻¹ s⁻¹ and 976000 M⁻¹ s⁻¹
6 | B6 | < 0.001 | < 1e-07 | 1.18e+06 M⁻¹ s⁻¹ and 1e+06 M⁻¹ s⁻¹
7 | B7 | < 0.001 | < 1e-07 | 1.78e+06 M⁻¹ s⁻¹ and 1.31e+06 M⁻¹ s⁻¹
8 | B8 | < 0.001 | < 1e-07 | 1.75e+06 M⁻¹ s⁻¹ and 1.32e+06 M⁻¹ s⁻¹

Target: T1, WHT2484 (PROSS-MPNN stabilized design …)
Experiment: as above
Conditions: both partners purified

Row | Binder | Kd | kon | koff
9 | B1 | 0.11 nM and 0.314 nM | 956000 M⁻¹ s⁻¹ and 1.26e+06 M⁻¹ s⁻¹ | 
10 | B2 |  | 956000 M⁻¹ s⁻¹ and 1.18e+06 M⁻¹ s⁻¹ | 
11 | B3 |  | 1.06e+06 M⁻¹ s⁻¹ and 1.12e+06 M⁻¹ s⁻¹ | 
12 | B4 | 0.112 nM and 0.074 nM | 1.01e+06 M⁻¹ s⁻¹ and 936000 M⁻¹ s⁻¹ | 0.000113 s⁻¹ and 6.89e-05 s⁻¹
13 | B5 | 0.069 nM and 0.081 nM | 778000 M⁻¹ s⁻¹ and 953000 M⁻¹ s⁻¹ | 5.39e-05 s⁻¹ and 7.69e-05 s⁻¹
14 | B6 | 0.139 nM and 0.101 nM | 893000 M⁻¹ s⁻¹ and 1.05e+06 M⁻¹ s⁻¹ | 0.000124 s⁻¹ and 0.000106 s⁻¹
15 | B7 |  | 658000 M⁻¹ s⁻¹ and 745000 M⁻¹ s⁻¹ | 
16 | B8 |  | 705000 M⁻¹ s⁻¹ and 780000 M⁻¹ s⁻¹ | 

Target: T2, WHT2483 (PROSS-MPNN stabilized design …)
Experiment: as above
Conditions: both partners purified

Row | Binder | kon | Kd | koff
17 | B1 | 978000 M⁻¹ s⁻¹ and 1.37e+06 M⁻¹ s⁻¹ |  | 
18 | B3 | 1.04e+06 M⁻¹ s⁻¹ and 1.26e+06 M⁻¹ s⁻¹ |  | 
19 | B4 | 838000 M⁻¹ s⁻¹ and 910000 M⁻¹ s⁻¹ |  | 
20 | B5 | 778000 M⁻¹ s⁻¹ and 949000 M⁻¹ s⁻¹ | 0.085 nM and 0.059 nM | 6.59e-05 s⁻¹ and 5.6e-05 s⁻¹
21 | B6 | 778000 M⁻¹ s⁻¹ and 1.07e+06 M⁻¹ s⁻¹ | 0.089 nM and 0.154 nM | 6.92e-05 s⁻¹ and 0.000165 s⁻¹
22 | B7 |  | ≤ 0.01 nM | 
23 | B8 | 1.02e+06 M⁻¹ s⁻¹ and 1.24e+06 M⁻¹ s⁻¹ | 0.053 nM and 0.018 nM | 
